From PMC12216052 (Nature Communications, 2025)

Target: T1, Notch1(EGF1-36) (amino acids 20-1426) (human, UniProt P46531 20-1426, biotin, chemically at the N-terminus (EZ-Link Sulfo-NHS-Biotin))
T1 construct: NOTCH1, human, EGF1-36, amino acids 20-1426; also called NOTCH1 ECD; source: Tni insect cells (baculovirus), purified (nickel chromatography with 1 mM calcium, SEC), chemically biotinylated
Experiment: SPR; ~300 RU biotinylated NOTCH1(EGF1-36) on a streptavidin chip; DLL4(N-5) or DLK1 ECD as analyte; HBS-P20-BSA with 1 mM CaCl2; reference: ZNRF3 ECD
Conditions: both partners purified

B1: Human DLL4 (N-EGF5, amino acids 27-400) (domain or fragment, UniProt Q9NR61 27-400, looked up)
chain: SGVFQLQLQEFINERGVLASGRPCEPGCRTFFRVCLKHFQAVVSPGPCTFGTVSTPVLGTNSFAVRDDSSGGGRNPLQLPFNFTWPGTFSLIIEAWHAPGDDLRPEALPPDALISKIAIQGSLAVGQNWLLDEQTSTLTRLRYSYRVICSDNYYGDNCSRLCKKRNDHFGHYVCQPDGNLSCLPGWTGEYCQQPICLSGCHEQNGYCSKPAECLCRPGWQGRLCNECIPHNGCRHGTCSTPWQCTCDEGWGGLFCDQDLNYCTHHSPCKNGATCSNSGQRSYTCTCRPGYTGVDCELELSECDSNPCRNGGSCKDQEDGYHCLCPPGYYGLHCEHSTLSCADSPCFNGGSCRERNQGANYACECPPNFTGSNCE
notes: Delta-like 4 (DLL4), human, N-EGF5, amino acids 27-400; also called DLL4(N-5); source: Tni insect cells (baculovirus), purified (nickel chromatography, SEC)
  binding result: binds
